Results published in patent US9127073B2, “Rock2 and Rock3, two new gain-of-function variants of the cytokinin receptors AHK2 and AHK3” (Freie Universitat Berlin, priority 2009, dated 2015).

Tests used:
35S:CKX1 plants = assay: Reversion of the cytokinin-deficiency phenotype in the 35S:CKX1 background; assay type: in vivo, Arabidopsis thaliana
Method: Approximately 25000 35S:CKX1 seeds (Werner, T., Motyka, V., Laucou, V., Smets, R., Van Onckelen, H., and Schmülling, T. (2003). Cytokinin-deficient transgenic Arabidopsis plants show multiple developmental alterations indicating opposite functions of cytokinins in the regulation of shoot and root meristem activity. Plant Cell 15, 2532-2550) were soaked for 16 h in 100 ml 0.2% (v/v) ethyl methane sulfonate at room temperature. The M1 generation was grown as single plants and the M2 generation was screened for plants with wild-type-like phenotype.
Mapping populations for rock2 and rock3 were generated by crossing the rock2 35S:CKX1 and rock3 35S:CKX1 plants with wild type ecotype Landsberg erecta. The F2 progeny plants were used to map rock2 and rock3.
In order to compare the consequences of the rock3 mutation with those of the ore12 mutation the latter was introgressed into the 35S:CKX1 background (the rock3 was identified in this background). […] However, at different time points during development the degree of reversion is less strong than the reversion achieved with the rock3 allele. This difference is most evident for seedling size and rosette diameter. These two parameters are good indicators for a changed cytokinin status of the CKX1ox plants.

[1] = tested on: Arabidopsis thaliana Columbia (Col-0); assay: Natural leaf senescence of leaf 6 (Fv/Fm of PSII, chlorophyll content) under long-day conditions; assay type: in vivo
Method: (§1) The Columbia (Col-0) ecotype of Arabidopsis thaliana was used as the wild type. Plants were grown in the greenhouse on soil or under sterile conditions in Petri dishes containing ATS-medium (Estelle, M. A., and Somerville, C. (1986). Auxin-resistant mutants of Arabidopsis thaliana with an altered morphology. Mol. Gen. Genet. 206, 200-206). All plants were grown at 22° C. under long-day conditions (16 h light/8 h dark).
The maximum efficiency of PSII photochemistry (Fv/Fm ratio) of dark adapted plants was measured with FluorCam (Photon Systems Instruments, Brno, Czech Republic). Chlorophyll contents of individual leaves were measured using the Chlorophyll Meter SPAD-502 (Konika Minolta, Bremen, Germany), taking the mean value of two measurements on the same leaf.

[2] = tested on: Arabidopsis thaliana Columbia (Col-0); assay: Shoot parameters of mutant plants and transgenic lines (height, siliques, stem thickness, flower size); assay type: in vivo; conditions: compared to wild-type or ore12 plants; for size of flowers: flowers at stage 14
Method: as §1
For the construction of the pAHK2:rock2 transgene a 2124 by promoter region of AHK2 was amplified by PCR from genomic DNA of A. thaliana Col-0 and cloned with Gateway™ technology into the pDONR™ P4-P1R entry vector (Invitrogen, Karlsruhe, Germany). After cloning the AHK2 coding sequence with Gateway™ technology into the pDONR™ 221 entry vector (Invitrogen) the rock2 point mutation was introduced by PCR based mutagenesis with the “QuickChange Site-Directed Mutagenesis”-Kit (Stratagene, La Jolla, USA) to obtain the rock2 Allele. Both fragments were combined with Multisite Gateway™ recombinational cloning in the pK7m24GW,3 vector (Karimi et al., 2005). To obtain the pAHK3:rock3 construct a 2062 bp promoter region of AHK3 was amplified by PCR from genomic DNA of A. thaliana Col-0 and the fragment was inserted into pDONR™P4-P1R entry vector (Invitrogen). The AHK3 cDNA containing the open reading frame of the gene was PCR-amplified from A. thaliana Col-0 and cloned into pDONR™222 entry vector (Invitrogen). To introduce the rock3 point mutation the “QuickChange Site-Directed Mutagenesis”-Kit (Stratagene, La Jolla, USA) was used to get the rock3 allele. The AHK3 promoter and the ROCK3 cDNA were combined with Multisite Gateway™ recombinational cloning in the pK7m24GW,3 vector (Karimi, M., De Meyer, B., and Nilson, P. (2005). Modular cloning in plant cells. Trends Plant Sci. 10, 103-105). Both constructs were introduced into Agrobacterium tumefaciens strain GV3101 and A. thaliana Col-0 plants were transformed using the floral-dip method (Clough, S. J., and Bent, A. F. (1998). Floral dip: a simplified method for Agrobacterium-mediated transformation of Arabidopsis thaliana. Plant J. 16, 735-743). Transgenic lines were selected using kanamycin and propagated into the T3 or T4 generation.
(§2) At 18 days after germination digital pictures were taken of rosettes and the rosette diameter was measured using the Scion Image program (Scion Corporation, Frederick, Md., USA). Flowers at stage 14 were photographed and their size was also measured using the Scion Image program.
(§3) Fresh weights were measured by weighting either rosettes, shoots without rosettes, or whole aerial parts of the plants. The final plant height and the number of siliques were determined after termination of flowering. For analysis of seed yield, plants were put into paper bags after termination of flowering. After plants were kept dry for additional three weeks, total seed weight was determined.

[3] = tested on: Arabidopsis thaliana Columbia (Col-0); assay: Vegetative growth and fresh weight of mutant alleles in wild-type background; assay type: in vivo; conditions: for vegetative growth of wild-type plants: mutant allele in Col-0 background, compared to wild type
Method: as §1
In order to analyze the consequences of the rock2 and rock3 mutations in wild type, the rock2 and rock3 suppressor mutants in 35S:CKX1 background were crossed to wild-type Columbia. […] The F2 generation was screened for rock2 and rock3 plants in wild-type background (called then rock2 and rock3 mutants).
as §2, §3

Molecule | reversion of the phenotypic consequences of CKX1 overexpression (cytokinin deficiency) (35S:CKX1 plants) | onset of leaf senescence ([1]; leaf 6, compared to wild type and among mutants) | number of siliques on the main stem [2] | shoot height (plant height) [2] | stem thickness [2] | size of flowers [2] | increase in fresh weight of rosettes and whole plant over the complete life cycle ([3]; difference particularly evident at 32-40 DAG) | vegetative growth of wild-type plants [3] | longer life time of leaves compared to wild-type leaves ([1]; leaf 6, long-day conditions)
rock2: constitutively active gain-of-function variant of cytokinin receptor AHK2 of Arabidopsis thaliana, SEQ ID No. 1, encoded by SEQ ID No. 3 (protein, listed as Arabidopsis thaliana) MSITCELLNLTSKKAKKSSSSDKKWLKKPLFFLILCGSLVIVLVMFLRLGRSQKEETDSCNGEEKVLYRHQNVTRSEIHDLVSLFSDSDQVTSFECHKESSPGMWTNYGITCSLSVRSDKQETRGLPWNLGLGHSISSTSCMCGNLEPILQQPENLEEENHEEGLEQGLSSYLRNAWWCLILGVLVCHKIYVSHSKARGERKEKVHLQEALAPKKQQQRAQTSSRGAGRWRKNILLLGILGGVSFSVWWFWDTNEEIIMKRRETLANMCDERARVLQDQFNVSLNHVHALSILVSTFHHGKIPSAIDQRTFEEYTERTNFERPLTSGVAYALKVPHSEREKFEKEHGWAIKKMETEDQTVVQDCVPENFDPAPIQDEYAPVIFAQETVSHIVSVDMMSGEEDRENILRARASGKGVLTSPFKLLKSNHLGVVLTFAVYDTSLPPDATEEQRVEATIGYLGASYDMPSLVEKLLHQLASKQTIAVDVYDTTNTSGLIKMYGSEIGDISEQHISSLDFGDPSRNHEMHCRFKHKLPIPWTAITPSILVLVITFFVGYILYEAINRIATVEEDCQKMRELKARAEAADIAKSQFLATVSHEIRTPMNGVLGMLKMLMDTDLDAKQMDYAQTAHGSGKDLTSLINEVLDQAKIESGRLELENVPFDMRFILDNVSSLLSGKANEKGIELAVYVSSQVPDVVVGDPSRFRQIITNLVGNSIKFTQERGHIFISVHLADEVKEPLTIEDAVLKQRLALGCSESGETVSGFPAVNAWGSWKNFKTCYSTESQNSDQIKLLVTVEDTGVGIPVDAQGRIFTPFMQADSSTSRTYGGTGIGLSISKRLVELMQGEMGFVSEPGIGSTFSFTGVFGKAETNTSITKLERFDLAIQEFTGLRALVIDNRNIRAEVTRYELRRLGISADIVSSLRMACTCCISKLENLAMILIDKDAWNKEEFSVLDELFTRSKVTFTRVPKIFLLATSATLTERSEMKSTGLIDEVVIKPLRMSVLICCLQETLVNGKKRQPNRQRRNLGHLLREKQILVVDDNLVNRRVAEGALKKYGAIVTCVESGKAALAMLKPPHNFDACFMDLQMPEMDGFEATRRVRELEREINKKIASGEVSAEMFCKFSSWHVPILAMTADVIQATHEECMKCGMDGYVSKPFEEEVLYTAVARFFEPC | suppress the phenotypic consequences of cytokinin deficiency | earliest onset of leaf senescence | more siliques on the main stem | increased | thicker stems | bigger flowers | effect is strongest | significantly enhance the vegetative growth | –
rock3: constitutively active gain-of-function variant of cytokinin receptor AHK3 of Arabidopsis thaliana, SEQ ID No. 2, encoded by SEQ ID No. 4 (protein, listed as Arabidopsis thaliana) MSLFHVLGFGVKIGHLFWMLCCWFVSWFVDNGIEDKSGLLVGSVGDLEKTKMTTLKKKNKMWFWNKISSSGLKIPSFSYQFLGSVKFNKAWWRKLVVVWVVFWVLVSIWTFWYFSSQAMEKRKETLASMCDERARMLQDQFNVSMNHVQAMSILISTFHHGKIPSAIDQRTFSEYTDRISFERPLTSGVAYAMRVLHSEREEFERQQGWTIRKMYSLEQNPVHKDDYDLEALEPSPVQEEYAPVIFAQDTVSHVVSLDMLSGKEDRENVLRARSSGKGVLTAPFPLIKTNRLGVILTFAVYKRDLPSNATPKERIEATNGYLGGVFDIESLVENLLQQLASKQTILVNVYDITNHSQPISMYGTNVSADGLERVSPLIFGDPLRKHEMRCRFKQKPPWPVLSMVTSFGILVIALLVAHIIHATVSRIHKVEEDCDKMKQLKKKAEAADVAKSQFLATVSHEIRTPMNGVLGMLHMLMDTELDVTQQDYVRTAQASGKALVSLINEVLDQAKIESGKLELEEVRFDLRGILDDVLSLFSSKSQQKGVELAVYISDRVPDMLIGDPGRFRQILTNLMGNSIKFTEKGHIFVTVHLVDELFESIDGETASSPESTLSGLPVADRQRSWENFKAFSSNGHRSFEPSPPDINLIVSVEDTGVGIPVEAQSRIFTPFMQVGPSISRTHGGTGIGLSISKCLVGLMKGEIGFSSTPKVGSTFTFTAVFSNGMQPAERKNDNNQPIFSEFRGMKAVVVDHRPARAKVSWYHFQRLGIRVEVVPRVEQALHYLKIGTTTVNMILIEQEIWNREADDFIKKLQKDPLFLSPKLILLANSVESSISEALCTGIDPPIVIVKPLRASMLAATLQRGLGIGIREPPQHKGPPALILRNLLLGRKILIVDDNNVNLRVAAGALKKYGADVVCAESGIKAISLLKPPHEFDACFMDIQMPEMDGFEATRRIRDMEEEMNKRIKNGEALIVENGNKTSWHLPVLAMTADVIQATHEECLKCGMDGYVSKPFEAEQLYREVSRFFNSPSDTES | suppress the phenotypic consequences of cytokinin deficiency | – | – | – | thicker stems | bigger flowers | – | significantly enhance the vegetative growth | about ten
